Target: H. pylori-bullfrog hybrid ferritin nanoparticle (bullfrog (Rana catesbeiana) | Helicobacter pylori)
Experiment: SEC

“H. pylori-bullfrog hybrid ferritin nanoparticle” was tested, and the stoichiometry N was 24.
